Data reported in US20210388102A1 (IMMUNOGEN, published 2021).
One block for each binder: values may come before it.

Legend:
[1] = target: T1, cynomolgus monkey ADAM9 (cynoADAM9) on cells (cynomolgus monkey, UniProt Q13443 206-819 (human entry)); assay: FACS, EC50 on 300-19 cynoADAM9 cells over EC50 on 300-19 huADAM9 cells
T1 construct: also called Cho-K/cynoADAM9 clone 2; Cho-K/cynoADAM9 clone #16
T1 chain: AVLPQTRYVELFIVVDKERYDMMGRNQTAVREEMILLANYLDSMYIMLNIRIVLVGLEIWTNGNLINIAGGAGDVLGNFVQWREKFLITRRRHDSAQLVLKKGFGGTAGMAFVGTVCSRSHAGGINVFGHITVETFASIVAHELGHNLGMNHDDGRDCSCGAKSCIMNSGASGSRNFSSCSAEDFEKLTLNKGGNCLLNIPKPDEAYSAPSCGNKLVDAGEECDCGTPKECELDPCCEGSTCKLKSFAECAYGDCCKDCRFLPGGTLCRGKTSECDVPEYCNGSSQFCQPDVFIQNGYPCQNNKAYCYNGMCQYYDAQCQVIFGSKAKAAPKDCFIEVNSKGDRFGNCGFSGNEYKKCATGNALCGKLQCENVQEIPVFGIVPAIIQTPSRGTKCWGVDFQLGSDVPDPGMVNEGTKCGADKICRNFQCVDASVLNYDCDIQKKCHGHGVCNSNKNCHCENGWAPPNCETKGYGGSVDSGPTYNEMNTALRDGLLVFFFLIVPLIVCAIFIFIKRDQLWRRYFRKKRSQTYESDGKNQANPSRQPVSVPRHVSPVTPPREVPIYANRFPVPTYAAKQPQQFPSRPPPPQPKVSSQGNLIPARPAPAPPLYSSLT
Description: To evaluate the consequence of conjugation on antigen binding, the relative binding affinity of each anti-ADAM9 immunoconjugate and its respective unconjugated antibody to ADAM9 was determined by FACS analysis on 300-19 cells ectopically-expressing either human ADAM9 or cynomolgus ADAM9. Briefly, the ADAM9-expressing 300-19 cells were incubated with dilution series of anti-ADAM9 antibodies or immunoconjugates for 30 min @ 4° C. in FACS buffer (PBS, 0.1% BSA, 0.01% NaN₃), Samples were then washed and incubated with fluorescently-labeled secondary antibody for 30 minutes at 4° C. The normalized mean of fluorescence intensity at each concentration was plotted and the EC50 of binding was calculated using a nonlinear regression analysis (GraphPad Prims 4.0).

[2] = target: T1, cynomolgus monkey ADAM9 (cynoADAM9) on …; assay: FACS, 300-19 cells expressing cynomolgus ADAM9
[3] = target: T2, human ADAM9 (huADAM9) on cells (human, UniProt Q13443 206-819); assay: FACS, 300-19 cells expressing human ADAM9
T2 construct: The pro-domain is said to be cleaved (Arg-205/Ala-206) in the mature protein; also called Cho-K/huADAM9; Cho-K/hu ADAM9.2
T2 sequence: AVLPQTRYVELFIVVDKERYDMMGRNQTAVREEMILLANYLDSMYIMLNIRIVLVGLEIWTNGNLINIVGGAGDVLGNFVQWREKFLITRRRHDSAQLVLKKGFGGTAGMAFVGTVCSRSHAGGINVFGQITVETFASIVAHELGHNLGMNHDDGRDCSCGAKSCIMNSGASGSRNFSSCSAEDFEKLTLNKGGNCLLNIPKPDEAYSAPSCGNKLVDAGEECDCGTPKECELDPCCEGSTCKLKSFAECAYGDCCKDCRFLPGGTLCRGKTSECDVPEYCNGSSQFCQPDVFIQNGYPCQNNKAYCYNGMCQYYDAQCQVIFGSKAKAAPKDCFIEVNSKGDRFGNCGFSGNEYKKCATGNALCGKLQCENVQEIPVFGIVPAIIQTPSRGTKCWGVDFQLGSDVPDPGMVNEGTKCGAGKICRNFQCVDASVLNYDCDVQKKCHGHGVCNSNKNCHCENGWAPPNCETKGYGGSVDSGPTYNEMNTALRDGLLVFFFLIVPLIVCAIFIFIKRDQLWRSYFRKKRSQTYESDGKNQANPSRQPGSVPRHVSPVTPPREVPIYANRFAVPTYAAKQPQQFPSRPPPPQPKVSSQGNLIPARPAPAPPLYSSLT

[4] = target: T3, His-tagged soluble human ADAM9 (shADAM9-His) (human, UniProt Q13443 206-697); assay: SPR (BIACORE), antibody captured, huADAM9-His in flow
T3 construct: Contains an extracellular portion of human ADAM9; also called huADAM9-His; His peptide-tagged soluble huADAM9
T3 sequence: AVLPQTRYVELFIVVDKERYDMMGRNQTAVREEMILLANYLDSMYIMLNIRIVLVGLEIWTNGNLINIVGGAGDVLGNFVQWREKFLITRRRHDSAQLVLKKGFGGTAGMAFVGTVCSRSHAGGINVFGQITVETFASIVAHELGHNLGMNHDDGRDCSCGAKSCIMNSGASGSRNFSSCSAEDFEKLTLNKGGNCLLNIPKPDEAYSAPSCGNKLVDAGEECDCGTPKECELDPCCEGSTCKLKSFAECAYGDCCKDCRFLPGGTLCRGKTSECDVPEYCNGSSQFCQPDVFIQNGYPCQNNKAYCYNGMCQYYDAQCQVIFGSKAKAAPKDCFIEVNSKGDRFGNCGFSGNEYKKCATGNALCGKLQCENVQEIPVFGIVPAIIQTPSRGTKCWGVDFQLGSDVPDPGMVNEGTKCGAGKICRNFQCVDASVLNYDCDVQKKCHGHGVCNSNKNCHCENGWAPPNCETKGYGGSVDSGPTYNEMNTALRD
Description: (§1) The kinetics of binding were determined via BIACORE® analysis binding (normalized 1:1 Langmuir binding model).

[5] = target: T3, His-tagged soluble human ADAM9 …; assay: ELISA: His-tagged soluble huADAM9 (0.5 µg/mL) captured by plate-coated anti-His antibody; serial dilutions of antibody about 0.2-500 ng/mL; abs @450nm
Excerpt: The binding of each Fc variant to huADAM9-His and cynoADAM9-His was examined by ELISA assay.

[6] = target: T2, human ADAM9 (huADAM9) on cells; assay: cell-based or functional assay
[7] = target: T3, His-tagged soluble human ADAM9 …; assay: SPR (BIACORE), antibody captured on anti-human Fc, shADAM9-His 6.25-100 nM, 1:1 Langmuir
Description: as §1

B1: hMAB-A (2C.2) (antibody, human IgG1, kappa, V domains shown)
VH: EVQLVESGGGLVKPGGSLRLSCAASGFTFSSYWMHWVRQAPGKGLEWVGEIIPIFGHTNYNEKFKSRFTISLDNSKNTLYLQMGSLRAEDTAVYYCARGGYYYYPRFGWLDYWGQGTTVTVSS
VL: DIVMTQSPDSLAVSLGERATISCKASQSVDYSGDSYMNWYQQKPGQPPKLLIYAASDLESGIPARFSGSGSGTDFTLTISSLEPEDFATYYCQQSHEDPFTFGQGTKLEIKR
notes: IgG1 kappa; also called MAB-A VH(2C); MAB-A VH(2C.2)
cyno/human (ratio of EC50) [1]: 3
EC50 [2]: 3.8 nM
EC50 [3]: 1.22 nM
Kd [4]: 1.4 nM
koff [4]: 0.00081 s⁻¹
kon [4]: 590000 M⁻¹ s⁻¹

B4: hMAB-A(2I.2)-sSPDB-DM4 (antibody, human IgG1, kappa)
heavy: not shown
light: DIVMTQSPDSLAVSLGERATISCKASQSVDYSGDSYMNWYQQKPGQPPKLLIYAASDLESGIPARFSGSGSGTDFTLTISSLEPEDFATYYCQQSHEDPFTFGQGTKLEIKRTVAAPSVFIFPPSDEQLKSGTASVVCLLNNFYPREAKVQWKVDNALQSGNSQESVTEQDSKDSTYSLSSTLTLSKADYEKHKVYACEVTHQGLSSPVTKSFNRGEC
modifications: lysine-linked DM4, sites not given; DM4 linked through sulfo-SPDB to lysine residues of the antibody, sites not given; average 3.5 mol DM4/mol antibody
cyno/human (ratio of EC50) [1]: 3
EC50 [2]: 4.9 nM
Fold-specificity (IC50 control ADC/IC50 anti-ADAM9 ADC), A498 [6]: 30 fold
Fold-specificity (IC50 control ADC/IC50 anti-ADAM9 ADC), DLD-1 [6]: 63 fold
Fold-specificity (IC50 control ADC/IC50 anti-ADAM9 ADC), DU145 [6]: 32 fold
Fold-specificity (IC50 control ADC/IC50 anti-ADAM9 ADC), HPAF2 [6]: 13 fold
Fold-specificity (IC50 control ADC/IC50 anti-ADAM9 ADC), HS578T [6]: 20 fold
Fold-specificity (IC50 control ADC/IC50 anti-ADAM9 ADC), IGROV1 [6]: 8 fold
Fold-specificity (IC50 control ADC/IC50 anti-ADAM9 ADC), KATO III [6]: 11 fold
Fold-specificity (IC50 control ADC/IC50 anti-ADAM9 ADC), NCI-H1703 [6]: 132 fold
In Vitro Cytotoxicity (IC50 nM), A498 [6]: 0.108 nM
In Vitro Cytotoxicity (IC50 nM), DLD-1 [6]: 0.386 nM
In Vitro Cytotoxicity (IC50 nM), DU145 [6]: 0.439 nM
In Vitro Cytotoxicity (IC50 nM), HPAF2 [6]: 0.422 nM
In Vitro Cytotoxicity (IC50 nM), HS578T [6]: 0.094 nM
In Vitro Cytotoxicity (IC50 nM), IGROV1 [6]: 1.41 nM
In Vitro Cytotoxicity (IC50 nM), KATO III [6]: 0.48 nM
In Vitro Cytotoxicity (IC50 nM), NCI-H1703 [6]: 0.028 nM
EC50 [3]: 1.55 nM

B6: hMAB-A (1.1) (antibody, V domains shown)
VH: EVQLVESGGGLVKPGGSLRLSCAASGFTFSSYWMHWVRQAPGKGLEWVGEIIPINGHTNYNEKFKSRFTISLDNSKNTLYLQMGSLRAEDTAVYYCARGGYYYYGSRDYFDYWGQGTTVTVSS
VL: DIVMTQSPDSLAVSLGERATISCKASQSVDYDGDSYMNWYQQKPGQPPKLLIYAASDLESGIPARFSGSGSGTDFTLTISSLEPEDFATYYCQQSHEDPFTFGQGTKLEIK
notes: also called hMAB-A VH(1)/hMAB-A VL(1)
Kd [7]: 3.5 nM

B9: hMAB-A (4.4) (antibody, V domains shown)
VH: EVQLVESGGGLVKPGGSLRLSCAASGFTFSSYWIHWVRQAPGKGLEWVGEIIPIFGHTNYNERFQGRFTISLDNSKNTLYLQMGSLRAEDTAVYYCARGGYYYYGSRDYFDYWGQGTTVTVSS
VL: DIVMTQSPDSLAVSLGERATISCRASQSVDYSGDSYLNWYQQKPGQPPKLLIYAASDLESGIPARFSGSGSGTDFTLTISSLEPEDFATYYCQQSYSTPFTFGQGTKLEIK
notes: also called hMAB-A VH(4)/hMAB-A VL(4)
Kd [7]: 2 nM

Second part, led by results:

EC50 (read off the curve) [5]: ~9 ng/mL
B2: hMAB-A (2I.2)(AA) (antibody, human IgG1, kappa, L234A L235A)
heavy: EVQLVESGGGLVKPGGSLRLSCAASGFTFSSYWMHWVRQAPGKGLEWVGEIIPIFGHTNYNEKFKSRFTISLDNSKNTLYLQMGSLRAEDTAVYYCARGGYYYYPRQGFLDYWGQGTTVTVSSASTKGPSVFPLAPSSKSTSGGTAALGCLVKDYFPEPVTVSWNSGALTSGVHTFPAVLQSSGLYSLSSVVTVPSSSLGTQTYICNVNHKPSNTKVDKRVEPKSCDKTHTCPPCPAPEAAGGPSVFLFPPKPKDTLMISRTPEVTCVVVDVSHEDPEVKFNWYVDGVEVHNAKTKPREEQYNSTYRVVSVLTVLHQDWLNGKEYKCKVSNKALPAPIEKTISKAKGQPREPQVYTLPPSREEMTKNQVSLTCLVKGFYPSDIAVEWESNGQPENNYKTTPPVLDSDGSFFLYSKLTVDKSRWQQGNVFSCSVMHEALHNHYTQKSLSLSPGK
light: DIVMTQSPDSLAVSLGERATISCKASQSVDYSGDSYMNWYQQKPGQPPKLLIYAASDLESGIPARFSGSGSGTDFTLTISSLEPEDFATYYCQQSHEDPFTFGQGTKLEIKRTVAAPSVFIFPPSDEQLKSGTASVVCLLNNFYPREAKVQWKVDNALQSGNSQESVTEQDSKDSTYSLSSTLTLSKADYEKHKVYACEVTHQGLSSPVTKSFNRGEC
notes: Last residue X is lysine or absent; also called L234A/L235A Fc variant of hMAB-A (2I.2)

cyno/human (ratio of EC50) [1]: 2
EC50 [2]: 6.2 nM
Fold-specificity (IC50 control ADC/IC50 anti-ADAM9 ADC), A498 [6]: > 1000 fold
Fold-specificity (IC50 control ADC/IC50 anti-ADAM9 ADC), DLD-1 [6]: > 1000 fold
Fold-specificity (IC50 control ADC/IC50 anti-ADAM9 ADC), DU145 [6]: > 1000 fold
Fold-specificity (IC50 control ADC/IC50 anti-ADAM9 ADC), HPAF2 [6]: > 1000 fold
Fold-specificity (IC50 control ADC/IC50 anti-ADAM9 ADC), HS578T [6]: 646 fold
Fold-specificity (IC50 control ADC/IC50 anti-ADAM9 ADC), IGROV1 [6]: > 1000 fold
Fold-specificity (IC50 control ADC/IC50 anti-ADAM9 ADC), KATO III [6]: > 1000 fold
Fold-specificity (IC50 control ADC/IC50 anti-ADAM9 ADC), NCI-H1703 [6]: > 1000 fold
EC50 [3]: 2.49 nM
B3: hMAB-A(2I.2)-S442C-DGN549 (antibody)
heavy: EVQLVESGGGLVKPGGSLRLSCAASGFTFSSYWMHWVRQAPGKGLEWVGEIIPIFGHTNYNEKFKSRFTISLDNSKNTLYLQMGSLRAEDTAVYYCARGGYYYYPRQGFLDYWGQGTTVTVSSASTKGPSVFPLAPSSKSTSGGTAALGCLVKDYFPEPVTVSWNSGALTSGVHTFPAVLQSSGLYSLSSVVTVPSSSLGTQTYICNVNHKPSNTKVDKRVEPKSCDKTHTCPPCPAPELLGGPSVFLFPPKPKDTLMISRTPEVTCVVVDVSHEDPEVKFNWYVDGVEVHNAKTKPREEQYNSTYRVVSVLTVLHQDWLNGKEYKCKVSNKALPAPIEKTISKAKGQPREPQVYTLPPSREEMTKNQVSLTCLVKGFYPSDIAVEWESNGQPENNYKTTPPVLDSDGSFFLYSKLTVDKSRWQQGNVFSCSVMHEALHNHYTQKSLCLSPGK
light: DIVMTQSPDSLAVSLGERATISCKASQSVDYSGDSYMNWYQQKPGQPPKLLIYAASDLESGIPARFSGSGSGTDFTLTISSLEPEDFATYYCQQSHEDPFTFGQGTKLEIKRTVAAPSVFIFPPSDEQLKSGTASVVCLLNNFYPREAKVQWKVDNALQSGNSQESVTEQDSKDSTYSLSSTLTLSKADYEKHKVYACEVTHQGLSSPVTKSFNRGEC
modifications: DGN549-C (compound D5) on the engineered Cys S442C (EU index; 6th to the last residue of SEQ ID NO 142 when X is lysine); average 1.9 mol DGN549/mol antibody
notes: also called huMAB-A(2I.2)-S442C-DGN549
In Vitro Cytotoxicity (IC50 nM), A498 [6]: 0.004 nM
In Vitro Cytotoxicity (IC50 nM), DLD-1 [6]: 0.045 nM
In Vitro Cytotoxicity (IC50 nM), DU145 [6]: 0.004 nM
In Vitro Cytotoxicity (IC50 nM), HPAF2 [6]: 0.115 nM
In Vitro Cytotoxicity (IC50 nM), HS578T [6]: 0.017 nM
In Vitro Cytotoxicity (IC50 nM), IGROV1 [6]: 0.003 nM
In Vitro Cytotoxicity (IC50 nM), KATO III [6]: 0.065 nM
In Vitro Cytotoxicity (IC50 nM), NCI-H1703 [6]: 0.004 nM

cyno/human (ratio of EC50) [1]: 273
EC50 [2]: 112 nM
EC50 [3]: 0.41 nM
Kd [7]: 3.6 nM
B5: chMAB-A (antibody, V domains shown)
VH: QVQLQQPGAELVKPGASVKLSCKASGYTFTSYWMHWVKQRPGQGLEWIGEIIPINGHTNYNEKFKSKATLTLDKSSSTAYMQLSSLASEDSAVYYCARGGYYYYGSRDYFDYWGQGTTLTVSS
VL: DIVLTQSPASLAVSLGQRATISCKASQSVDYDGDSYMNWYQQIPGQPPKLLIYAASDLESGIPARFSGSGSGTDFTLNIHPVEEEDAATYYCQQSHEDPFTFGGGTKLEIK
notes: also called chimeric version of MAB-A; chimeric chMAB-A

Kd [7]: 1.4 nM
B7: hMAB-A (3.3) (antibody, V domains shown)
VH: EVQLVESGGGLVKPGGSLRLSCAASGFTFSSYWMHWVRQAPGKGLEWVGEIIPIFGHTNYNERFQGRFTISLDNSKNTLYLQMGSLRAEDTAVYYCARGGYYYYGSRDYFDYWGQGTTVTVSS
VL: DIVMTQSPDSLAVSLGERATISCRASQSVDYSGDSYMNWYQQKPGQPPKLLIYAASDLESGIPARFSGSGSGTDFTLTISSLEPEDFATYYCQQSHEDPFTFGQGTKLEIK
notes: also called hMAB-A VH(3)/hMAB-A VL(3)

Kd [7]: 1.3 nM
B8: hMAB-A (2.3) (antibody, V domains shown)
VH: EVQLVESGGGLVKPGGSLRLSCAASGFTFSSYWMHWVRQAPGKGLEWVGEIIPIFGHTNYNEKFKSRFTISLDNSKNTLYLQMGSLRAEDTAVYYCARGGYYYYGSRDYFDYWGQGTTVTVSS
VL: DIVMTQSPDSLAVSLGERATISCRASQSVDYSGDSYMNWYQQKPGQPPKLLIYAASDLESGIPARFSGSGSGTDFTLTISSLEPEDFATYYCQQSHEDPFTFGQGTKLEIK
notes: also called hMAB-A VH(2)/hMAB-A VL(3)
